What all share (experiment): microtubule co-sedimentation (taxol-mediated polymerisation, sucrose gradient centrifugation) with western blot quantification
One test has as its target EZRIN (UniProt P26040). The conditions noted are these: E18.5 forebrain, n = 3, mean ± s.e.m., parent: est. 0.10, read off a plot.
The target in a further test is KIF5C (UniProt P28738). The conditions noted are these: E18.5 forebrain, n = 3, mean ± s.e.m., parent: est. 0.61, read off a plot.
The target in another test is REEP1 (UniProt Q8BGH4). As to conditions: E18.5 forebrain, n = 3, mean ± s.e.m., parent: est. 0.28, read off a plot.
Another test has as its target VAPA (UniProt Q9WV55). The conditions noted are these: E18.5 forebrain, n = 3, mean ± s.e.m., parent: est. 0.30, read off a plot.
The target in a further test is VAPB (UniProt Q9QY76). As to conditions: E18.5 forebrain, n = 3, mean ± s.e.m., parent: est. 0.27, read off a plot.
Test [1] has as its target dynein intermediate chain (DYNC1I1/2) (UniProt O88485). The conditions noted are these: E18.5 forebrain; n = 3; mean ± s.e.m.; P<0.01; parent: est. 0.55; read off a plot.

For the substance “microtubules from the forebrain of E18.5 R402H/R402H littermate controls (no Cre; wild-type Tuba1a expressed) (from UniProt P68369;P99024)”, the response (ratio MT pellet/lysate) was 0.12 in the test with EZRIN; 0.6 with KIF5C; 0.05 with REEP1; 0.34 with VAPA; 0.14 with VAPB; 0.29 in test [1].

These data come from article PMC7660477.
